Test results taken from paper PMC8104961.
Several values for one entry are separate records, joined by “and”; a condition that tells them apart may be missing. Equal entries are not always repeated. One block for each substance: values may come before it.

Legend:
[1] = biological target: S. cerevisiae Ire1 kinase/RNase domains (WT Sc Ire1-KR) (S. cerevisiae); test: AUC; sedimentation equilibrium, 20°C; 2.5, 5 and 10 μM protein at 7,000, 10,000 and 14,000 rpm; 50 mM Tris/HCl pH 7.5, 200 mM NaCl, 2 mM Mg(OAc)2, 2 mM TCEP; global fit to a self-association equilibrium model; monomer-dimer equilibrium constant
[2] = biological target: Sc Ire1-KR(K992D,Y1059R) (S. cerevisiae); test: as above
[3] = biological target: Sc Ire1-KR(K992D,Y1059R) (S. cerevisiae); test: cross-linking; 12.5 μM Ire1-KR, 2 mM ADP, 1 mM BS3 (bissulfosuccinimidyl suberate), 2 h on ice; 50 mM HEPES, 200 mM NaCl, 2 mM Mg(OAc)2, 2 mM TCEP, 10% glycerol; SDS-PAGE, coomassie blue or SYPRO Ruby
[4] = biological target: Sc Ire1-KR(K992R,Y1059D) (S. cerevisiae); test: as above

- Kd [1]: 57 µM
Substance: S. cerevisiae Ire1 kinase/RNase domains (WT Sc Ire1-KR) (domain or fragment)

- Kd [2]: 0.98 µM
- stoichiometry N [3]: 2 and 4
Substance: Sc Ire1-KR(K992D,Y1059R) (domain or fragment)

- stoichiometry N [4]: 2
Substance: Sc Ire1-KR(K992R,Y1059D) (domain or fragment)
